{"source": "patent US6982082", "about": "(Harvard, dated 2006)", "binders": {"B1": {"name": "alpha-cyclopentyl, sarcosine11-CsA (CpSar11-CsA) (peptide)", "peptide": "XXXXXVXAXXX", "modifications": "head-to-tail cyclic undecapeptide made by cyclising linear peptide 11; residues as printed: CpSar (L-alpha-cyclopentylsarcosine, position 11 of CsA)-MeBmt-Abu-Sar-MeLeu-Val-MeLeu-Ala-D-Ala-MeLeu-MeLeu (N-methylated residues, D-Ala, Abu, MeBmt)"}}, "key": {"[1]": {"molecular_target": "CypA wild type with N-terminal FLAG epitope tag, expressed from pBJ5 in Jurkat cells (UniProt P62937 1-165)", "sequence (P62937 whole entry)": "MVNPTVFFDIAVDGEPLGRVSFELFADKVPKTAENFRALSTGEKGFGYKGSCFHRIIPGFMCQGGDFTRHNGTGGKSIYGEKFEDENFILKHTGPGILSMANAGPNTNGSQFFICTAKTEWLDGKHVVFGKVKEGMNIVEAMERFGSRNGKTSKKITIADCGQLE", "assay": "cell-based or functional assay"}, "[2]": {"molecular_target": "CypAgtm (S99T, F113G, C115M) with N-terminal FLAG epitope tag, expressed from pBJ5 in Jurkat cells (UniProt P62937 1-165)", "sequence (P62937 whole entry S99T/F113G/C115M)": "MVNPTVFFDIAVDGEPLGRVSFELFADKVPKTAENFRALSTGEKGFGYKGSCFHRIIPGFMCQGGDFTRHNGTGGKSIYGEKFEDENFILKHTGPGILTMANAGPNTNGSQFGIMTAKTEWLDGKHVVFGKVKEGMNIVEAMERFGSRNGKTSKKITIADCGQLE", "assay": "cell-based or functional assay"}}}
{"binder": "B1", "values": [{"measurement": "IC50 in Cellular NFAT-Signalling", "setting": "[1]", "result": "> 400", "unit": "nM"}, {"measurement": "IC50 in Cellular NFAT-Signalling", "setting": "[2]", "result": 25, "unit": "nM"}]}
